Where two headings read alike, the source gives them in different places.
Tests used:
[1] = target: T1, recombinant human TFPI (tissue factor pathway inhibitor) (human, UniProt P10646 29-304); assay: cell-based or functional assay
[2] = target: T1, recombinant human TFPI (tissue factor …); assay: cell-based or functional assay; remark: listed apart in the source
[3] = target: T1, recombinant human TFPI (tissue factor …); assay: cell-based or functional assay; remark: listed apart in the source
[4] = target: T1, recombinant human TFPI (tissue factor …); assay: SPR, Biacore T-200; IgG captured on protein A (CM5), TFPI as analyte
Protocol: Dissociation of the TFPI associated with the antibody was induced by running 10 mM glycine-HCl (pH 1.5) at a flow rate for 30 seconds. The affinities in terms of kinetic rate constants (Kₒₙ and Koff) and equilibrium dissociation constant (KD) were evaluated using Biacore T-200 evaluation software, and the results are shown in Table 24 below.

[5] = target: T1, recombinant human TFPI (tissue factor …); assay: cell-based or functional assay; remark: listed apart in the source
[6] = target: T1, recombinant human TFPI (tissue factor …); assay: cell-based or functional assay; remark: listed apart in the source
[7] = target: T1, recombinant human TFPI (tissue factor …); assay: cell-based or functional assay; remark: listed apart in the source
[8] = target: T1, recombinant human TFPI (tissue factor …); assay: cell-based or functional assay; remark: listed apart in the source
[9] = target: T1, recombinant human TFPI (tissue factor …); assay: cell-based or functional assay; remark: listed apart in the source
[10] = target: TFPI in FVIII-deficient plasma (sample dilution); assay: cell-based or functional assay
[11] = target: T1, recombinant human TFPI (tissue factor …); assay: cell-based or functional assay; remark: listed apart in the source
[12] = target: T1, recombinant human TFPI (tissue factor …); assay: cell-based or functional assay; remark: listed apart in the source

B1: clone 1023 (antibody, V domains shown)
VH: EVQLVESGGGLVKPGGSLRLSCAASGFTFSSYAMNWVRQAPGKGLEWVGTITTGGSYTYYADSVDGRFTISRDNAKNSLYLQMNSLRAEDTAVYYCARQDGNFLMDYWGQGTLVTVSS
VL: DVVMTQTPLSLPVTLGQPASISCKSSQSLLDIDGKTYLNWLQQRPGQSPKRLIYLVSKLDSGVPDRFTGSGSGTDFTLKISRVEAEDVGVYYCWQGTHFPFTFGQGTKVEIKR
notes: scFv on yeast at selection; human IgG4/kappa IgG as purified
A405, TF/FVIIa/FX complex assay, Ab 1.56 nM [1]: 0.143
A405, TF/FVIIa/FX complex assay, Ab 3.13 nM [1]: 0.152
A405, TF/FVIIa/FX complex assay, Ab 6.25 nM [1]: 0.168
A405, TF/FVIIa/FX complex assay, Ab 12.5 nM [1]: 0.228
A405, TF/FVIIa/FX complex assay, Ab 25 nM [1]: 0.795
A405, TF/FVIIa/FX complex assay, Ab 50 nM [1]: 0.947
A405, TF/FVIIa/FX complex assay, Ab 100 nM [1]: 0.951
% of Normalized, TF/FVIIa/FX complex assay, Ab 1.56 nM [2]: 16%
% of Normalized, TF/FVIIa/FX complex assay, Ab 3.13 nM [2]: 17.5%
% of Normalized, TF/FVIIa/FX complex assay, Ab 6.25 nM [2]: 19.9%
% of Normalized, TF/FVIIa/FX complex assay, Ab 12.5 nM [2]: 27.1%
% of Normalized, TF/FVIIa/FX complex assay, Ab 25 nM [2]: 96.6%
% of Normalized, TF/FVIIa/FX complex assay, Ab 50 nM [2]: 94.8%
% of Normalized, TF/FVIIa/FX complex assay, Ab 100 nM [2]: 98%
FXa assay % of FXa alone, 2.5 nM Ab, 10 nM TFPI [3]: 7.9%
FXa assay % of FXa alone, 5 nM Ab, 10 nM TFPI [3]: 37.7%
FXa assay % of FXa alone, 10 nM Ab, 10 nM TFPI [3]: 84.3%
FXa assay % of FXa alone, 20 nM Ab, 10 nM TFPI [3]: 91.7%
FXa assay OD, 2.5 nM Ab, 10 nM TFPI [3]: 0.064
FXa assay OD, 5 nM Ab, 10 nM TFPI [3]: 0.306
FXa assay OD, 10 nM Ab, 10 nM TFPI [3]: 0.684
FXa assay OD, 20 nM Ab, 10 nM TFPI [3]: 0.745
Kd [4]: 30.1 pM
FXa assay % of FXa alone, 2.5 nM Ab, 10 nM TFPI [5]: 6.7%
FXa assay % of FXa alone, 5 nM Ab, 10 nM TFPI [5]: 26.6%
FXa assay % of FXa alone, 10 nM Ab, 10 nM TFPI [5]: 82.3%
FXa assay % of FXa alone, 20 nM Ab, 10 nM TFPI [5]: 84%
FXa assay OD, 2.5 nM Ab, 10 nM TFPI [5]: 0.051
FXa assay OD, 5 nM Ab, 10 nM TFPI [5]: 0.203
FXa assay OD, 10 nM Ab, 10 nM TFPI [5]: 0.626
FXa assay OD, 20 nM Ab, 10 nM TFPI [5]: 0.639
FXa assay % of FXa alone, 2.5 nM Ab, 10 nM TFPI [6]: 7.3%
FXa assay % of FXa alone, 5 nM Ab, 10 nM TFPI [6]: 25.2%
FXa assay % of FXa alone, 10 nM Ab, 10 nM TFPI [6]: 83.6%
FXa assay % of FXa alone, 20 nM Ab, 10 nM TFPI [6]: 85.5%
FXa assay OD, 2.5 nM Ab, 10 nM TFPI [6]: 0.06
FXa assay OD, 5 nM Ab, 10 nM TFPI [6]: 0.208
FXa assay OD, 10 nM Ab, 10 nM TFPI [6]: 0.691
FXa assay OD, 20 nM Ab, 10 nM TFPI [6]: 0.707
FXa assay % of FXa alone, 2.5 nM Ab, 10 nM TFPI [7]: 8.7%
FXa assay % of FXa alone, 5 nM Ab, 10 nM TFPI [7]: 47.3%
FXa assay % of FXa alone, 10 nM Ab, 10 nM TFPI [7]: 89.6%
FXa assay % of FXa alone, 20 nM Ab, 10 nM TFPI [7]: 101%
FXa assay OD, 2.5 nM Ab, 10 nM TFPI [7]: 0.042
FXa assay OD, 5 nM Ab, 10 nM TFPI [7]: 0.229
FXa assay OD, 10 nM Ab, 10 nM TFPI [7]: 0.433
FXa assay OD, 20 nM Ab, 10 nM TFPI [7]: 0.488
A405, TF/FVIIa/FX complex assay, Ab 1.56 nM [8]: 0.041
A405, TF/FVIIa/FX complex assay, Ab 3.13 nM [8]: 0.051
A405, TF/FVIIa/FX complex assay, Ab 6.25 nM [8]: 0.071
A405, TF/FVIIa/FX complex assay, Ab 12.5 nM [8]: 0.088
A405, TF/FVIIa/FX complex assay, Ab 25 nM [8]: 0.371
A405, TF/FVIIa/FX complex assay, Ab 50 nM [8]: 0.681
A405, TF/FVIIa/FX complex assay, Ab 100 nM [8]: 0.846
effect of inhibiting TFPI, FXa activity assay, Ab 10 nM [9]: ~84%
effect of inhibiting TFPI, FXa activity assay, Ab 20 nM [9]: ~86%
ETP vs negative control, thrombin generation assay, Ab 2.5 nM [10]: ~309%
thrombin peak vs blank, thrombin generation assay, Ab 2.5 nM [10]: ~401%
FXa assay % of FXa alone, 2.5 nM Ab, 10 nM TFPI [11]: 8.4%
FXa assay % of FXa alone, 5 nM Ab, 10 nM TFPI [11]: 40.8%
FXa assay OD, 2.5 nM Ab, 10 nM TFPI [11]: 0.0605
FXa assay OD, 5 nM Ab, 10 nM TFPI [11]: 0.293
FXa assay OD, 10 nM Ab, 10 nM TFPI [11]: 0.605
A405, TF/FVIIa/FX complex assay, Ab 1.56 nM [12]: 0.153
A405, TF/FVIIa/FX complex assay, Ab 3.13 nM [12]: 0.167
A405, TF/FVIIa/FX complex assay, Ab 6.25 nM [12]: 0.19
A405, TF/FVIIa/FX complex assay, Ab 12.5 nM [12]: 0.259
A405, TF/FVIIa/FX complex assay, Ab 25 nM [12]: 0.923

— US20180030151A1 (MOGAM INSTITUTE FOR BIOMEDICAL RESEARCH, published 2018)
